# Results: patent US20240076343A1 (CEPHALON, published 2024)
# Residue numbers refer to the chain shown, from its start.
# B1: OMC476pG10-hIgG4 (antibody, V domains shown)
# VH: DVQLVESGGGVVRPGGSLRLSCAASGFTFSIYAMSWVRQAPGEGLEWVSHISASGGSTYYADSVKGRFAISRDNSKNTLYLQMNSLRAEDTAVYYCTTNLGSDYWGLGTLVTVSS
# VL: QSVLTQPPSASGTPGQRVTISCSGSYSDIGTNYVYWYQQLPGTAPKLLIFATDRRPSGVPDRFSGSKSGTSASLAISGLQSEDEADYYCGTWDDSLNVWVFGGGTKLTVLG
# B2: OMC476pH10-hIgG4 (antibody, V domains shown)
# VH: B1 VH with M34V
# VL: B1 VL
# B3: A2-hIgG4 (antibody, V domains shown)
# VH: DVQLVESGGGLVQPGGSLRLSCAASGFTFDISAMSWVRQAPGKGLEWVSTISGSAYSTYYADSVKGRFTISRDNSKSTLYLQMNSLRAEDTAVYYCAREIFSDYWGLGTLVTVSS
# VL: QSVLTQPPSASGTPGQRVTISCSGSTSNIGRESVYWYQQLPGTAPKLLIYSNVQRPSGAPNRFSGSKSGTSASLAISGLQSEDEADYYCGTWDDSLNGWVFGGGTKLTVLG
# B4: G12-hIgG4 (antibody, V domains shown)
# VH: DSLVESGGGLVQPGGSLRLSCAASGFTFDISAMSWVRQAPGKGLEWVSTISGSAYSTYYADSVKGRFTISRDNSKSTLYLQMNSLRAEDTAVYYCAREIFSDYWGLGTLVTVSS
# VL: B3 VL with S51L, V53S, A59V, N61D, E84V
# B5: OMC476pE4-hIgG4 (antibody, V domains shown)
# VH: DVQLVESGGGVVRPGESLRLSCAASGFTFSTDAMGWVRQAPGEGLEWVSLISGSGYSTYYADSVKGRFTISRDNSKNTLYLQMNSLTAEDTAVYYCAKNSLAFFDYWGLGTLVTVSS
# VL: B3 VL with S25G, T26S, Y35N, N52T, V53D, Q54R, A59V, N61D, D94N, S95D
# B6: D12-hIgG4 (antibody, V domains shown)
# VH: B3 VH
# VL: B3 VL with S25N, A59V, N61D
# B7: OMC.2.C6-hIgG4 (antibody, V domains shown)
# VH: EVQLLESGGGLVQPGGSLRLSCTASGFTFSSYEMQWVRQAPGKGLEWVLGITSSSSHIFYADSVKGRFTVSRDNSKNTLYLQMNSLRAEDTAVYYCTKDLNSYYGLDVWGQGTTVTVSS
# VL: QSVMTQPPSASGTPGQRVTISCSGSTSNLGNNYVSWYQHLPGTAPKLLIYGNDQRPSGVPDRFSGSKSGTSASLAISGLQSDDEADYYCSSWDASLNVWVFGGGTKLTVLG
# B8: Anti-PD-1 clone J110 hIgG1 (antibody, V domains shown)
# VH: DVQLQESGPGLVKPSQSLSLTCTVTGHSITSDYAWNWIRQFPGDKLEWMGYISYSGYTTYNPSLKSRVSITRDTSKNQFFLQLNSVTTEDTATYFCARDLDYGPWFAYWGQGTLVTVSA
# VL: DIQMTQSPASLSASVGETVTLTCRASENIHNYLAWYQQKQGKSPQLLVYNVKTLADGVPSRFSGSGSGTQYSLKINSLQPEDFGSYYCQHFWSSPWTFGGGTKVEIKR
# B9: 2H7-hIgG4-LE (antibody)
# heavy: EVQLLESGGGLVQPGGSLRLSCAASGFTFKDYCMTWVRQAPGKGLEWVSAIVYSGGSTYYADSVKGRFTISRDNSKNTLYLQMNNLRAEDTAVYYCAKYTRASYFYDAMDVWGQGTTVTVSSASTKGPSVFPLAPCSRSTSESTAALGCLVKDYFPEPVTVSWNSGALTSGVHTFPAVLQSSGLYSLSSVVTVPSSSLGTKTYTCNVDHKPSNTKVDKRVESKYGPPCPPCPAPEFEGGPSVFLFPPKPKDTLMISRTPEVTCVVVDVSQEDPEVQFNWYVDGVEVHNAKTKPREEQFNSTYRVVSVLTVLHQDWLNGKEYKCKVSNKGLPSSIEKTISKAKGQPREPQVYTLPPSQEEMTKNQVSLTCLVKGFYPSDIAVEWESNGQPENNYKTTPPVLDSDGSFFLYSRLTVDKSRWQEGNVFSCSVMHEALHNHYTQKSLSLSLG
# light: EIVLTQSPGTLSLSPGERATLSCRASQSIGKSFLAWYQQKPGQAPRLLIYDASTRAADIPARFSGSGSGTDFTLTISSLEPEDFAVYYCQQYYDWPPLSFGGGTKVEIKRTVAAPSVFIFPPSDEQLKSGTASVVCLLNNFYPREAKVQWKVDNALQSGNSQESVTEQDSKDSTYSLSSTLTLSKADYEKHKVYACEVTHQGLSSPVTKSFNRGEC
# B10: 2H7-hIgG4-LAGA (antibody)
# heavy: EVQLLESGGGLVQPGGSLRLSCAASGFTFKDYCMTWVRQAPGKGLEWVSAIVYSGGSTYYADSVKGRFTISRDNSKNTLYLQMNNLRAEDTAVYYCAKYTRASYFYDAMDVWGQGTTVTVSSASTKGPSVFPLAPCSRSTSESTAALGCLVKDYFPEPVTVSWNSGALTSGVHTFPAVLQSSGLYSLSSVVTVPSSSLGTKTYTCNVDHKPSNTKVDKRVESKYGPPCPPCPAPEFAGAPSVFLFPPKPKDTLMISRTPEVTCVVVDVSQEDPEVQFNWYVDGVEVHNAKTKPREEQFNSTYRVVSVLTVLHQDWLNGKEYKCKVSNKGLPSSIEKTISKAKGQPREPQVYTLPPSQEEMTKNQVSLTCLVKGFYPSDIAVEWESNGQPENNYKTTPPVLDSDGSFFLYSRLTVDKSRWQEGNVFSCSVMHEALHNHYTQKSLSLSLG
# light: B9 light
# B11: OMC.1.B6-hIgG4 (antibody, V domains shown)
# VH: EVQLLESGGGLVQPGGSLRLSCAASGFTFSSNYMSWVRQAPGKGLEWVSAISSSGGTIFYADSVKGRFTISRDNSKNTLYLQMNSLRAEDTAVYYCAKHKWNAVYYDGMDVWGQGTTVTVSS
# VL: QSVLTQPPSASGTPGQRVTISCSGSNSNIGRNLVNWYQQLPGTAPKLLIYTIDQRPSGVPDRFSGSKSGTSASLVISGLQSEDEADYYCAAWDGSLNAWVFGGGTKLTVLG
# B12: OMC.1.D6-hIgG4 (antibody, V domains shown)
# VH: B11 VH with S31D, N32Y, T69I, A103D, G108A
# VL: B11 VL with I52V, V75A, Q80A, G94S, A98S
# B13: Abz1mod-hIgG4 (antibody, V domains shown)
# VH: QVQLVQSGSELKKPGASVKVSCKASGYTFTSYAMHWVRQAPGQGLEWMGYISPFTGRATYAQGFTGRFVFSLDTSVSTAYLQISSLKAEDTAVYYCARDYDYRYYYAMDYWGQGTTVTVSS
# VL: EIVLTQSPDFQSVTPKEKVTITCRASQSIPPQFLHWYQQKPDQSPKLLIKAASQRASGVPSRFSGSGSGTDFTLTINSLEAEDAATYYCHQFHSSPLTFGGGTKLEIKR
# B14: 2A3.H7-hIgG4 (antibody, V domains shown)
# VH: EVQLLESGGGLVQPGGSLRLSCAASGFTFKDYCMTWVRQAPGKGLEWVSAIVYSGGSTYYADSVKGRFTISRDNSKNTLYLQMNNLRAEDTAVYYCAKYTRASYFYDAMDVWGQGTTVTVSS
# VL: EIVLTQSPGTLSLSPGERATLSCRASQSIGRSFLAWYQQKPGQAPRLLIYDASTRAADIPARFSGSGSGTDFTLTISSLEPEDFAVYYCQQYYDWPPLSFGGGTKVEIKR
# B15: 1H9-hIgG4 (antibody, V domains shown)
# VH: B14 VH with A23V, A24G, T28N, F29L, N85S, A102G
# VL: B14 VL with A61D, S77N, S78R, S99T
# B16: 1D5-hIgG4 (antibody, V domains shown)
# VH: B14 VH with A23V, A24G, T28N, N85S, A102G
# VL: B14 VL with A57T, A61D, D71E, E80Q, P81S, S99T
# Biological target: T1, recombinant His-tagged human PD-1 (Acro Biosystems) (human, UniProt Q15116 25-167)
# T1 construct: His-tagged; also called hPD-1
# Assay: SPR Carterra LSA;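 also: antibodies or fusion proteins amine-coupled on an HC30M chip, soluble His-tagged human or cynomolgus PD-1 titrated over them, non-regenerative kinetics, constants fitted from titration curves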
# Method: Surface plasmon resonance binding analysis was performed using a high-throughput SPR Carterra® LSA™ to determine binding affinities of anti-hPD-1 antibodies and anti-hPD-1-attenuated hIL-2 fusion proteins. Proteins were diluted to 2 or 10 μg/mL in 10 mM sodium acetate pH 4.5 containing 0.01% Tween-20 and coupled to a HC30M (Carterra Bio) chip using sulpho-N-hydroxysuccinimide/1-ethyl-3-(3-dimethylamino) propyl carbodiimide (sulpho-NHS/EDC) coupling chemistry and blocked with ethanolamine. A non-regenerative kinetic coupling process was used to determine binding kinetics to commercially sourced recombinant His-tagged human PD-1 and His-tagged cynomolgus PD-1 (Acro Biosystems).
# The association constants (kₐ), dissociation constants (kd), and equilibrium constants (KD) of various anti-hPD-1 antibodies and anti-hPD-1 antibody-attenuated hIL-2 fusion proteins binding to recombinant human or cynomolgus PD-1 proteins was determined from the titration curves and the Carterra Kinetics software. The maximal feasible SPR signal generated (Rₘₐₓ) and residual standard deviation (Res SD) was also calculated.
# T1 sequence (Q15116 25-167 limits assumed): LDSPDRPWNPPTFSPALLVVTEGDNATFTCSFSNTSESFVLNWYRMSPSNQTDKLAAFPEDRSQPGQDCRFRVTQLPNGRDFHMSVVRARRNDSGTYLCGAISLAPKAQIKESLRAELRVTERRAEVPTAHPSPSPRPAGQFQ
Kd,koff,kon,Binder
44 nM,0.0041 s⁻¹,93000 M⁻¹ s⁻¹,B1
64 nM,0.0065 s⁻¹,100000 M⁻¹ s⁻¹,B2
36 nM,0.0013 s⁻¹,37000 M⁻¹ s⁻¹,B3
50 nM,0.0026 s⁻¹,53000 M⁻¹ s⁻¹,B4
11 nM,0.00088 s⁻¹,79000 M⁻¹ s⁻¹,B5
8.1 nM,0.00046 s⁻¹,57000 M⁻¹ s⁻¹,B6
12 nM,0.00066 s⁻¹,57000 M⁻¹ s⁻¹,B7
10 nM,0.001 s⁻¹,100000 M⁻¹ s⁻¹,B8
3.1 nM,0.00082 s⁻¹,260000 M⁻¹ s⁻¹,B9
5.3 nM,0.00091 s⁻¹,170000 M⁻¹ s⁻¹,B10
52 nM,0.004 s⁻¹,77000 M⁻¹ s⁻¹,B11
42 nM,0.0017 s⁻¹,41000 M⁻¹ s⁻¹,B12
0.426 nM,6e-05 s⁻¹,140000 M⁻¹ s⁻¹,B13

# Biological target: T2, recombinant His-tagged cynomolgus PD-1 (Acro Biosystems) (cynomolgus, UniProt B0LAJ3 25-170)
# T2 construct: His-tagged; also called Cyno PD-1; not shown: His tag (and any linker) of the Acro Biosystems product
# Assay: SPR Carterra LSA;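 also: antibodies or fusion proteins amine-coupled on an HC30M chip, soluble His-tagged human or cynomolgus PD-1 titrated over them, non-regenerative kinetics, constants fitted from titration curves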
# T2 sequence (B0LAJ3 entry or part of it limits assumed): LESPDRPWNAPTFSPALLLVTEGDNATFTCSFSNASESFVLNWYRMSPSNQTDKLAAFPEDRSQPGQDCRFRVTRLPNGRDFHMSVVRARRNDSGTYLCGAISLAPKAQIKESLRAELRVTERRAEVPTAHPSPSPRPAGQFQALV
Kd,koff,kon,Binder
487 nM,0.06 s⁻¹,120000 M⁻¹ s⁻¹,B1
480 nM,0.059 s⁻¹,120000 M⁻¹ s⁻¹,B2
589 nM,0.04 s⁻¹,68000 M⁻¹ s⁻¹,B3
754 nM,0.065 s⁻¹,86000 M⁻¹ s⁻¹,B4
331 nM,0.035 s⁻¹,100000 M⁻¹ s⁻¹,B5
272 nM,0.016 s⁻¹,59000 M⁻¹ s⁻¹,B6
13 nM,0.00074 s⁻¹,55000 M⁻¹ s⁻¹,B7
1200 nM,0.05 s⁻¹,41000 M⁻¹ s⁻¹,B8
7.1 nM,0.001 s⁻¹,140000 M⁻¹ s⁻¹,B9
12 nM,0.0011 s⁻¹,91000 M⁻¹ s⁻¹,B10
51 nM,0.0044 s⁻¹,88000 M⁻¹ s⁻¹,B11
694 nM,0.04 s⁻¹,58000 M⁻¹ s⁻¹,B12
3.7 nM,0.00062 s⁻¹,170000 M⁻¹ s⁻¹,B13

# Biological target: human PD-1 on Jurkat Effector cells of the PD-1/PD-L1 blockade bioassay (Promega, Cat #J1255) (human, UniProt Q15116 25-288)
# Assay: cell-based or functional assay
# Chain of human PD-1 on Jurkat Effector cells of the PD-1/PD-L1 blockade bioassay (Promega, Cat #J1255) (Q15116 25-288): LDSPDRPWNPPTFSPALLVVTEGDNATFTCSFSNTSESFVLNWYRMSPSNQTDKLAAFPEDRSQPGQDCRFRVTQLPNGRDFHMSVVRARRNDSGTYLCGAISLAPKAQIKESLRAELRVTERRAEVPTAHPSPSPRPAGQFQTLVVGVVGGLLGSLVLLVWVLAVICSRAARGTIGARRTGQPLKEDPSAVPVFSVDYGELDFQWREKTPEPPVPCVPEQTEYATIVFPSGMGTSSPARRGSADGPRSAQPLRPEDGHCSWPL
row,"luminescence (RLU), PD-1/PD-L1 blockade bioassay",Binder
1,~3000 RLU,B14
2,~3000 RLU,B15
3,~3000 RLU,B16
